The data set is described as follows: soluble on expression in E. coli; label from the status in PepcDB or PDB records.
On to “MGSDKIHHHHHHMQKLASGEQLMKVNGDTVATQGQLAKLLPLQHIDPQSTDIIDHGAKPRRQLLDWLMFHVEPEFYFAWQYYSRALKQRNTLLKTRRNLSLADLEPWNKMLSDYGEILHSQRLSIVEQWNVYFQNDLSQLLPDLEIELEYSPGFHTEQGLMQDLLNQHQKDIERRYTEYGPHRADLRLKTPFGHADDVLSRGQKKLLIIALKLSQIAMLHASNKETVVLLDDLTAELDLTAQQRLIERLSQLGSQVFMTTLDHASVKKHLHDLSISYQLFSVESGQVSLAAS”, for which the “soluble on expression in E. coli” value is on record as “not soluble”.

For the sequence “MSLDTSRRRRLARRSIAASFRLFLTVAKGLGVLDYRIDGAEILHQERGCLVVANHPTLIDYVLLASVMPETDCLVKSALLKNPFLGGVVRATDYLINSEAETLLPRCQQRLAQGDTILIFPEGTRTKPGEKMTLQRGAANIAVRCASDLRIVTIGCSEHLLDKQSKWYDVPPDRPFFTVAVHGRVEINKFYDATSQEPALAARQLNRHLLLQLQQGCLPLSGINNASALSGNEGHHHHHH”, the “soluble on expression in E. coli” value is “not soluble”.

In the case of “MIITIPIKNQKDIGTPSDSVVVLGYFDGIHKGHQELFRVANKAARKDLLPIVVMTFNESPKIALEPYHPDLFLHILNPAERERKLKREGVEELYLLDFSSQFASLTAQEFFATYIKAMNAKIIVAGFDYTFGSDKKTAEDLKNYFDGEVIIVPPVEDEKGKISSTRIRQAILDGNVKEAGKLLGAPLPSRGMVVHGNARGRTIGYPTANLVLLDRTYMPADGVYVVDVEIQRQKYRAMASVGKNVTFDGEEARFEVNIFDFNQDIYGETVMVYWLDRIRDMTKFDSVDQLVDQLKADEEVTRNWS”, the “soluble on expression in E. coli” value is “soluble”.

Regarding “MGSDKIHHHHHHMTAQSSHMLVLQSTVTSAFKTIASEKQGLEALEEALLGYLSSAFQAAVQTIRNANGHVVITGLGKSGHIGAKIAATLASTGTPAFFVHAAEANHGDLGMIGSDDVILALSWSGETSELSGIINHAARFRTPLIAMTSGEHSVLGRQADIVLLLPKIEEACPHGLAPTTSTIMQLAMGDALAVALLEMRGFTATDFKIYHPGGSLGASLKYVRDIMHQGESIPLVAQGTAMAKAMSVLVEKHFGCVGVVNQEGELIGIVTDGDLARNIHVNLSKFNVDELMTKDPKIVEPNTLVGAATAFINEHHIGAFFVVENKKPIGIVHFHDLLRIGAA”, the “soluble on expression in E. coli” value was “not soluble”.

For “PDKEYHTLHWIIMGALSCATRTVQIMTPYFIPDRSLVSALVTTALRGVEVTLVLPEKNNLPFVHWATRAYLWELIQQGIRVFYQPPPFAHTKLFIVDGLWSMIGSANLDPRSLRLNFELNLEVYDRELAGTLSRHFAVTVARSRQVSLTEMDGR”, the “soluble on expression in E. coli” value is reported as “not soluble”.

With “MCLDKMTDIRVRGYKSISFWQEEGIGLIVIRSDSHGRFDLNTLGEITAAIGIAAMDGSVRAVALTGMNNIFGRQLVIGQLSNNTVYNVMQSSSSLISMIYTFEKPIFSILNGDAIDEGYEIALLADRIISADDIKVGFSRDYEFKIGGSFTSLRMTKTDISGPAEGINVDRVVKHESLLEDAKNIIKETADINFPMRRRQRYRYISELINAEKINFYEHYLARS”, the “soluble on expression in E. coli” value is “not soluble”.

As for “MAHHHHHHMNFEDDDDIVIPGEFLGLQAEYINGNNTYLLKDEIRSSILGQKIINKNNDKKTIISVYNLKPPSLYLPKIGDIVICKVQRVSFHMIYCYILSSHNIFTKNALKGFILKSDIHINEGELGDNFICFKQGDIIKAKVLSIGQYSSYKLSTVGSELGVIAAFNQKGEILRPVAWNLVLNINDMTFERRKASNDFSLLL”, the “soluble on expression in E. coli” value was “not soluble”.

Consider “MSLTSQKTQLEPLGIVRIEGLHYYVHDLERSRRFYAQKLDFAEVARSTPALEREGRQRSAVFEAGGVRVVCSEPVGQGGRAWRWLRKHPDGVGTVVLEVEDAERAFRLLEERGGTPITDVQEHRDDGGTLRTFSITTPLGDTTFRFVERRGFRAVYPGIEPLAAPEGGRNAFGFGHVDHLTNNFQTMKPALLWMEHVMGMEEFWEVEFHTKDAAGARRAAIEAQKGSGLRSVVMRDPRSGVKFANNEPRRPAFKSSQINLFNEDLRGDGVQHAALTVQDILSSVRGMRARGVEFMPTPAAYYEALPERIRSTGIGRIDEDPRVLQELEILVDGAGDHSYLLQIFLRESAGLYHDPDAGPFFFEIIQRKGDQGFGAGNFRALFESIEREQVREGREGHHHHHH”, for which the “soluble on expression in E. coli” value is listed as “soluble”.

Consider “GMNLQTDQTTTTADESAIRAFHRQMIDAWNRGSGEGFAAPFSETADFITFEGTHLKGRKEIAAFHQQAFDTVVKGTRLEGEVDFVRFVNSQLALMLVVIRVILPGQTETSASRDSLPLYVVTKGDEGWQIEGLLNTRKLTLERQFFLDDFDSLSAEAQRQVTDLVASLKQSH”, for which the “soluble on expression in E. coli” value is “soluble”.

Regarding “RKKPVSQSLEFPTRYSPYRPYRCVHQGCFAAFTIQQNLILHYQAVHKSDLPAFSAEVEEE”, the “soluble on expression in E. coli” value is recorded as “soluble”.

As for “MSLDNTEQEKFETYDLDVETVYCRPIIKFPLLLIHAYRVYLALNDHNDIEPRLHSDRLLEIFDPLINGDEQSVKLFIETLWQVRYQFDRWVVKWVERDDATDAQLGLTYQSRSKSNDTYYINRTQKELTDIVLLQSVRNFTGERSAQYWLTPFLSGLIRSSIKQDSVALELLENIDNKMSLSVDTQKEASFALAEGIEPNCQSWQSQSTYFAKSLGTSFEHYWFQKLEYLIWKKMKASESSLPSEELNKFKKYRITSKNSVEHVHPQNDEYNSRLDCETLNSFGNLVLLSPGENSSYSNQDVDKKRIDFERKSHFDALKLREIFGVKGQGLWGKQQIDNHLEDMMAVFAQHYKEGHHHHHH”, the “soluble on expression in E. coli” value is “not soluble”.

For the sequence “MSVEKLIVDHMETWTSALQTRSTAGRGSSGKIDLYGIKKLRELILELAVRGKLVPQDPNDEPASDLLKRIAAEKAELVKQGKIKKQKPLPEISEEEKPFELPEGWEWVHLPDIYCSISESSRKIKSSEILPEGKYPVIEQSQEFISGYCNNECLLIKLNNPVIVFGDHTRNIKFIDFDFVVGADGVKILSPILICERFFFWQLRSFKLDVRGYARHFKVLNSCLFALPPIAEQERIVEKVSSLMSLCDQLEQQSLTSLDAHQQLVETLLGTLTDSQNTAELAENWARISEHFDTLFTTEASVDALKQTILQLAVMGKLVPQDPNDEPASELLKRIAQEKAQLVKEGKIQKPLPPISDEEKPFELPEGWEWCRIGNIVNIKSELVSPKDYLNLYQVAPDIIEKGTGRVISKRTVKESGVKGPNSRFYKGQIVYSKIRPSLSKVFLAEYNGLCSADMYPLDCYINPNYLLKYILSIPFLMQVKKAENRIKMPKLNSDSFYNIIVAIPPYNEQQAIFDKINSIEAVCNGLISYIGIYHKTQLHLADALTDAAIN”, the “soluble on expression in E. coli” value is recorded as “not soluble”.

As for “MNRLVILARVSTSKQDTERQLSDLNEVCTRNQYDLVNTFTETVSGKYGITERTTLQAIIKMAELKQFDKLLVSEVSRIGRKTSEVLKFIEILTERKISIYIHNYGLETLDRNLNQNPLIGMMINFLSSFSDMERTLTISRVKSGLEEARRRNVILGRPKNSTKDIDIFIDENKRLFELIKKQLTIREIARLTYKSTTTVVKAIKLYKLHPEKFLSAT”, the “soluble on expression in E. coli” value is “not soluble”.

Take “MQPTRRSYSNPFKAQVIQECSQPGASIASVALSHNLNANLVHKWIRLHAQKSPTLPPAFIPLAMPPAGANPHPASPNICVEIQHTRGTVKVSWPTENAAACATFLRDLLRLEHHHHHH”: the “soluble on expression in E. coli” value is on record as “not soluble”.

Turning to “MAGDPMITVVGVRFKKAGKIYYFSPGDLNINKGDDVIVETARGIEYGNCVIGLKQVGEESIVSPLKSVIRVATDEDEIKYRENKNKEKEAFNICLSKIKKHELVMKLIDVEYTFDNNKIIFYFTAEGRVDFRELVKDLASVFRTRIELRQIGVRDEAKMIGGFGVCGRPMCCALYLGDFAPVSIKMAKEQNLSLNPSKISGVCGRLMCCLNYEQETYETIRKRMPKVGSIVSTKEYGKAEVVDNNIIKEAVKIKFTAEDGESISEAEVHIKDLKLISGSYEGNVDESQIKLELEDVDAKEVKELFKTDLEHHHHHH”, the “soluble on expression in E. coli” value was “not soluble”.

Turning to “MRLLTCDCTFMGQKHSGSVSVEKKNQENDGPPTYEIVFGWSQSFENLMKHRAGQKYFAEFLKGEYSDENILFWQACEELKREKNAEKIEEKARIIYEDFISILSPKEVSLDSRVREIVNTNMGRPSASTFDEAQNQIYTLMQRDSYPRFLASNIYKTVMGTFGIKEEAV”, the “soluble on expression in E. coli” value is given as “not soluble”.

Regarding “MKSPAPSRPQKMALIPACIFLCFAALSVQAEETPVTPQPPDILLGPLFNDVQNAKLFPDQKTFADAVPNSDPLMILADYRMQQNQSGFDLRHFVNVNFTLPKEGEKYVPPEGQSLREHIDGLWPVLTRSTENTEKWDSLLPLPEPYVVPGGRFREVYYWDSYFTMLGLAESGHWDKVADMVANFAHEIDTYGHIPNGNRSYYLSRSQPPFFALMVELLAQHEGDAALKQYLPQMQKEYAYWMDGVENLQAGQQEKRVVKLQDGTLLNRYWDDRDTPRPESWVEDIATAKSNPNRPATEIYRDLRSAAASGWDFSSRWMDNPQQLNTLRTTSIVPVDLNSLMFKMEKILARASKAAGDNAMANQYETLANARQKGIEKYLWNDQQGWYADYDLKSHKVRNQLTAAALFPLYVNAAAKDRANKMATATKTHLLQPGGLNTTSVKSGQQWDAPNGWAPLQWVATEGLQNYGQKEVAMDISWHFLTNVQHTYDREKKLVEKYDVSTTGTGGGGGEYPLQDGFGWTNGVTLKMLDLICPKEQPCDNVPATRPTVKSATTQPSTKEAQPTP”, the “soluble on expression in E. coli” value is “not soluble”.

As for “MGSDKIHHHHHHMNIAIIGSGLTGSLAAISLAKAGCRVDLYERLSDEELVNRDRTYAITHSSRKILEKLGIWSNLSRDLVPFQFLNVIDYELNKKFVFLTNDLPIPDQKYSAVGWIAEHKFIMLSILSVISNLENINKIPTSVIPNTNNYDLIVAADGSSSNTKKKLNTPSFHFKYDQMCITAKVLLRGVKSNEAFEILNSEGPFAVLPLGGDLFQVICSQSILKGTYNMNLSKSLFLDYLSTILPYGIEPDTIIDSPESFPIDFCLNYLFFSGKYIYLGETAHKIHPVGGQGLNLCWRDVDCLSKLLSIPLLKNNHSLIPLIYSISRSFDVLSISILTDSLVRYSRSNISIFYLPRLLVFFILKKSSLFRKYILNLMTNGF”, the “soluble on expression in E. coli” value is given as “not soluble”.

On to “SLKINQEEDTVSSEKNKLCDNNNNNNMVHTRHIYNVCELNKCLRENKLIPYNNIYKMKHLYLNILDTFDENILKHVNKAHLFIDSVIQKKKNILIHCMAGISRCSSIILSYVSKKNKKGIEYNFNLLKSKYPFAHPNENFYRQLLLYEKMNYTLDGCTDYHNIYK”, for which the “soluble on expression in E. coli” value was “soluble”.

Consider “MILFGTGGIRGVMRKGEFDEETVKRASLSTALWLKEKGQKSVVIAYDTRKNSKEFAELAGRVFAGEGIEAYVFPEPTPTPVLSFAVRYMKTGGGVVITASHNPPEYNGYKVYTWDGVQAIPEYTNEITEIYKKVDLSHVKEGEIKFVPPEVKESYIKAVLEIVSNLPMKTDLDIAYSPLHGTGANYVPEVLKRLGFKVRLVEEQMKPDPNFSTVPTPNPEEDEALVLLNKKGATLGLATDPDCDRVGVVFKGRRLTGNQVGVLLTDFLLDHVKVENPLVIKTIVTTDMVRPICEEKGAFLEETPTGFKFIGHLIEEHTKKGDRNFVFGFEESCGYLAGNHARDKDGVVGSVLSAVAFSNYDPYEKLEELYQKYGYYMEKLINFKFEDVDRAVEIYRSLKNYDGIIDYSKGYGNVIPNETIAFVFEKSRIFVRPSGTEPKLKVYIHVRGDTREEAEELMKESESKIKEILKL”, for which the “soluble on expression in E. coli” value is “soluble”.

(Values after the DeepSol protein solubility set.)
